Biological target: the molecule itself
Assay: cross-linking

B1: IRE1α* (cytosolic kinase and RNase domains of human IRE1α, residues 469-977) (domain or fragment, UniProt O75460 469-977, looked up)
chain: HQQQQLQHQQFQKELEKIQLLQQQQQQLPFHPPGDTAQDGELLDTSGPYSESSGTSSPSTSPRASNHSLCSGSSASKAGSSPSLEQDDGDEETSVVIVGKISFCPKDVLGHGAEGTIVYRGMFDNRDVAVKRILPECFSFADREVQLLRESDEHPNVIRYFCTEKDRQFQYIAIELCAATLQEYVEQKDFAHLGLEPITLLQQTTSGLAHLHSLNIVHRDLKPHNILISMPNAHGKIKAMISDFGLCKKLAVGRHSFSRRSGVPGTEGWIAPEMLSEDCKENPTYTVDIFSAGCVFYYVISEGSHPFGKSLQRQANILLGACSLDCLHPEKHEDVIARELIEKMIAMDPQKRPSAKHVLKHPFFWSLEKQLQFFQDVSDRIEKESLDGPIVKQLERGGRAVVKMDWRENITVPLQTDLRKFRTYKGGSVRDLLRAMRNKKHHYRELPAEVRETLGSLPDDFVCYFTSRFPHLLAHTYRAMELCSHERLFQPYYFHEPPEPQPPVTPDAL
B1: binds.

Source: paper PMC5497784 (Cell metabolism, 2017)
